Experimental data: article PMC3891507 (2014)

Columns and labels:
[1] = molecular target: Laminin 111 (Mus musculus, UniProt P19137, LARGE-glycan (control myotubes), Ca2+); assay: solid-phase binding assay
[2] = molecular target: Laminin 111 (Mus musculus, UniProt P19137, shortened LARGE-glycan (LargeKD myotubes), Ca2+); assay: solid-phase binding assay

Kd [1]: 2.93 nM | Kd [2]: 4.75 nM
B1: alpha-dystroglycan (protein)
chain: HWPSEPSEAVRDWKNQLEASMHSVLSDFQEAVPTVVGIPDGTAVVGRSFRVSIPTDLIASSGEIIKVSAAGKEALPSWLHWDPHSHILEGLPLDTDKGVHYISVSAARLGANGSHVPQTSSVFSIEVYPEDHNEPQSVRAASSDPGEVVPSACAADEPVTVLTVILDADLTKMTPKQRIDLLNRMQSFSEVELHNMKLVPVVNNRLFDMSAFMAGPGNAKKVVENGALLSWKLGCSLNQNSVPDIRGVETPAREGAMSAQLGYPVVGWHIANKKPTLPKRLRRQIHATPTPVTAIGPPTTAIQEPPSRIVPTPTSPAIAPPTETMAPPVRDPVPGKPTVTIRTRGAIIQTPTLGPIQPTRVSEAGTTVPGQIRPTLTIPGYVEPTAVITPPTTTTKKPRVSTPKPATPSTDSSTTTTRRPTKKPRTPRPVPRVTTKAPITRLETASPPTRIRTTTSGVPRGGEPNQRPELKNHIDRVDAWVGTYFEVKIPSDTFYDNEDTTTDKLKLTLKLREQQLVGEKSWVQFNSNSQLMYGLPDSSHVGKHEYFMHATDKGGLSAVDAFEIHVHKRPQGDKAPARFKARLAGDPAPVVNDIHKKIALVKKLAFAFGDRNCSSITLQNITRG
